From patent US7964598B2 (The J. David Gladstone Institutes, priority 1995, dated 2011)

Tested on: apoE4-expressing Neuro-2a cells
Assay: Neurite outgrowth, apoE4-expressing Neuro-2a cells
Assay type: cell-based, mouse
Details: in the presence of β-VLDL
Description: Cells were grown in DME/F12 containing 10% FBS and G418 (400 μg/ml). On the day the experiment was initiated, the cells were subcultured into 35 mm plates in DME/F12 with 10% FBS. The cells were allowed to adhere to the plastic plates for 2 hr at 37° C., and then the culture medium was changed to N2 medium with or without increasing concentrations of lipoproteins. After 48 hr at 37° C., the media were replaced with the same medium (with or without lipoproteins), and the incubation was continued for an additional 48 hr. […] Neurons were imaged in fluorescence mode with a confocal laser scanning system (MRC-600, BioRad, Hercules, Calif.), and the images were digitized with an Image-1/AT image analysis system (Universal Images, West Chester, Pa.). The neuronal images were coded before characterization, and the following variables were measured: 1) number of neurites (defined as cell surface projections at least one-half the cell diameter) on each neuron; 2) neurite branching (the number of branch points on each neurite); and 3) neurite extension (the length of the longest neurite, measured from the cell body). Typically, in each experiment the neurites of 20 to 40 neurons per plate were measured and the results preserved as the mean±S.E.M. […]

B1: lactoferrin: blocks binding of lipoproteins to both HSPG and LRP (protein, UniProt P02788 20-710, looked up)
Lactotransferrin: GRRRSVQWCAVSQPEATKCFQWQRNMRKVRGPPVSCIKRDSPIQCIQAIAENRADAVTLDGGFIYEAGLAPYKLRPVAAEVYGTERQPRTHYYAVAVVKKGGSFQLNELQGLKSCHTGLRRTAGWNVPIGTLRPFLNWTGPPEPIEAAVARFFSASCVPGADKGQFPNLCRLCAGTGENKCAFSSQEPYFSYSGAFKCLRDGAGDVAFIRESTVFEDLSDEAERDEYELLCPDNTRKPVDKFKDCHLARVPSHAVVARSVNGKEDAIWNLLRQAQEKFGKDKSPKFQLFGSPSGQKDLLFKDSAIGFSRVPPRIDSGLYLGSGYFTAIQNLRKSEEEVAARRARVVWCAVGEQELRKCNQWSGLSEGSVTCSSASTTEDCIALVLKGEADAMSLDGGYVYTAGKCGLVPVLAENYKSQQSSDPDPNCVDRPVEGYLAVAVVRRSDTSLTWNSVKGKKSCHTAVDRTAGWNIPMGLLFNQTGSCKFDEYFSQSCAPGSDPRSNLCALCIGDEQGENKCVPNSNERYYGYTGAFRCLAENAGDVAFVKDVTVLQNTDGNNNEAWAKDLKLADFALLCLDGKRKPVTEARSCHLAMAPNHAVVSRMDKVERLKQVLLHQQAKFGRNGSDCPDKFCLFQSETKNLLFNDNTECLARLHGKTTYEKYLGPQYVAGITNLKKCSTSPLLEACEFLRK
inhibition of neurite extension seen in the apoE4-expressing cells: blocked the effects of apoE3 and apoE4 on neurite outgrowth
